Our source for the stoichiometry N values is PMC7376557.

The target of the experiment is SasC aggregation domain (S. aureus surface protein C), His-tagged (S. aureus strain N315). Kind of experiment: SEC-MALS; FPLC-MALS (Wyatt Technology) of the purified His-tagged SasC aggregation domain; superpolymer of about 1,610 kDa against 41.5 kDa for the domain. For orientation: SEC sorts molecules by how far they enter the pores of the column.

The term stoichiometry N denotes a count of units in the complex or per binding partner.

“SasC aggregation domain (S. aureus surface protein C), His-tagged (domain or fragment)” came in with a stoichiometry N of over 35.
